Entries after “also recorded” stand apart in the source; their conditions may differ.
Tests used:
[1] = Biodistribution in PC-3 tumor-bearing mice; assay type: in vivo, athymic nude male mice
Description: (§1) For all tumor studies, 1 × 10^6 PC-3 cells were implanted subcutaneously into the right flank of each mouse in a mixture of equal volumes of HC-Matrigel (high concentration; Corning) and RPMI medium (Gibco) and grown to a volume of about 200–300 mm^3.
PC-3 tumors were grown in male mice until an approximate tumor volume of 300 mm^3 was reached. […] The background was automatically subtracted from the counts. A standard was also used for decay correction, and the percent injected dose (%ID) per gram of tissue was calculated for each organ collected.
FIGURE 3. In vivo distribution of [^212Pb]Pb-DOTAM-GRPR1. (A) In athymic nude male mice carrying subcutaneous PC-3 tumors, 370 kBq of drug were administered and organs were collected from 5 mice per time point: 1, 4, and 24 h after injection. (B) At different specific activity in PC-3 tumor-bearing mice, 370 kBq per 28, 140, or 280 ng of DOTAM-GRPR1 were administered and organs were collected from 5 mice per time point: 1, 4, and 24 h after injection. Tissue uptake is expressed as %ID/g ± SD (n = 5). All tissues with uptake below 2% at 1 h were excluded from graph. ***P = 0.00013 between 280 ng of pancreas and 28 ng of pancreas.

[2] = Biodistribution in tumor-free CD-1 mice; assay type: in vivo
[3] = Radio-HPLC stability/oxidation of drug product with and without excipients; assay type: physicochemical
Description: DOTAM-GRPR1 (C77H119N23O17, Fig. 1) was manufactured by Macrocyclics using Fmoc solid-phase peptide synthesis. The peptide was isolated via reverse-phase high-performance liquid chromatography. Chelation was achieved by adding ^212Pb in ammonium acetate (Sigma-Aldrich) to DOTAM-GRPR1 alone or in the presence of 5% ethanol (Spectrum Chemical), up to 30 mM ascorbic acid (Honeywell), and 0.02% polysorbate 80 (J.T. Baker). Experiments were conducted for 10 min at either room temperature or 50°C.
Fractions were collected from the column every 6–10 s for up to 10 min and then analyzed for radiometric detection using an automatic γ-counter (Perkin Elmer Wizard^2 2470).
FIGURE 4. Radio–high-performance liquid chromatography showing optimized formulation conditions compared with no excipients added to chelation reaction. When chelation occurs with just ^212Pb and peptide, oxidation is visible at time of 0 h with percent main peak of 91% (A), which becomes unquantifiable at time of 24 h (B). However, with addition of ethanol, ascorbic acid, and polysorbate 80, percent main peak is 96% at time of 0 h (C) and remains high at 94% after 24 h (D). CPM = counts per minute; N/A = not applicable; T = time. […]

[4] = tested on: PC-3 xenograft tumors; experiment: α-imaging and biodistribution in PC-3 tumors of varying size; assay type: in vivo, mice
Description: as §1
Images were analyzed using Andor Solis software (ImageJ).
FIGURE 5. Biodistribution in varying-size tumors and drug microdistribution in tumor using α-imaging of [^212Pb]Pb-DOTAM-GRPR1. […] (B) Biodistribution of drug at 4 h after injection in tumors measuring 150 mm^3 (n = 5), 300 mm^3 (n = 6), 600 mm^3 (n = 4), and 900 mm^3 (n = 3). In left panel, tissue uptake is expressed as %ID/g ± SD (P < 0.05). Right panel is expressed as %ID ± SD. H&E = hematoxylin and eosin; LWH = length × width × height.

[5] = Dosimetry: absorbed radiation dose calculation from mouse biodistribution; conditions: for Estimated absorbed dose, pancreas / Estimated absorbed dose, red marrow / Estimated absorbed dose, urinary bladder wall / Estimated absorbed dose, kidneys / Estimated absorbed dose, spleen / Estimated absorbed dose, liver / Estimated absorbed dose, heart wall / Estimated absorbed dose, stomach (stem cell layer) / Estimated absorbed dose, lungs (alveolar–interstitial): RBE 5, female mice; for Estimated absorbed dose, red marrow: dose limit 2; for Estimated absorbed dose, urinary bladder wall: dose limit 20; for Estimated absorbed dose, kidneys: dose limit 23; for Estimated absorbed dose, spleen: dose limit 26; for Estimated absorbed dose, liver: dose limit 30; for Estimated absorbed dose, heart wall / Estimated absorbed dose, stomach (stem cell layer): dose limit 45; for Estimated absorbed dose, lungs (alveolar–interstitial): dose limit 65; for Administered activity at which 23-Gy kidney threshold is reached: female mice as printed, projected mean absorbed dose by modeling
Description: Physical decay was used to extrapolate after the last time point. The human equivalent time-integrated activity coefficient for both sexes was calculated by extrapolating mouse biodistribution data to human using standard methods assuming that tissue concentration divided by whole-body concentration in mice is the same as that in humans.
The linear energy transfer of α-particles is approximately 400 times greater than that of photons and β-particles. This difference in energy deposition density leads to fundamentally different biologic effects. Accordingly, the absorbed doses for these different emission types should be weighted appropriately to reflect likely biologic effects. The relative biological effectiveness (RBE) is the appropriate weighting factor for deterministic effects such as tissue toxicity and tumor kill efficacy. The tissue-absorbed doses (with RBE values of 3 and 5) for ^212Pb compounds were calculated.

[6] = in vivo
[7] = in vivo; remark: listed apart in the source

Compound: CC(C)C[C@H](NC(=O)C[C@H](O)[C@H](CC(C)C)NC(=O)[C@H](Cc1c[nH]cn1)NC(=O)CNC(=O)[C@@H](NC(=O)[C@H](C)NC(=O)[C@H](Cc1c[nH]c2ccccc12)NC(=O)[C@H](CCC(N)=O)NC(=O)[C@@H](Cc1ccccc1)NC(=O)CCNC(=O)CCNC(=O)CN1CCN(CC(N)=O)CCN(CC(N)=O)CCN(CC(N)=O)CC1)C(C)C)C(N)=O [[^212Pb]Pb-DOTAM-GRPR1, metal not drawn]
- PC-3 tumor uptake over time ([1]; 4–24 h after administration, 370 kBq, intravenous, athymic nude male mice, n = 5 per time point): remained constant for 4–24 h after drug administration
- Washout, pancreas versus tumor ([1]; PC-3 tumor-bearing mice): faster washout was observed from the pancreas than from tumor tissues
- tissue uptake at 1 h ([1]; mouse, PC-3 tumor, 1 h after administration, 370 kBq, intravenous (tail vein), athymic nude male mice, n = 5 per time point): ~5 %ID/g
- Biodistribution profile, activity in nontumor tissues ([1]; nonclinical, mice): safe biodistribution profile with a considerably low activity in nontumor tissues
- Tumor targeting ([1]; up to value, over 24 h, intravenous, GRPR-positive prostate tumor-bearing mice): up to 5 percent injected dose per gram
- Kidney uptake compared with radiolabeled somatostatin receptor ligands such as [^212Pb]Pb-DOTAMTATE with renal blocker ([1]; without renal blocker, comparator ref 9): well below kidney retention values of radiolabeled somatostatin receptors ligands
- Pancreas and kidney accumulation at 24 h ([2]; 24 h after injection, pancreas and kidneys, strain not clearly stated): significantly less accumulation by 24 h after injection
- tissue uptake at 4 h ([2]; mouse, all tissues, intravenous, 4 h after drug administration, tumor-free CD-1 mice, 'well below'): < 10 %ID/g
- Nontarget uptake ranking ([2]; pancreas and kidneys, strain not clearly stated): The pancreas and kidneys showed the highest nontarget uptake
- Biodistribution profile / accumulation in normal organs ([2]; tumor-free CD-1 mice): did not reveal any unexpected accumulation in normal organs
- Stability in optimized chelation formulation [3]: increased the stability of the drug well beyond 24 h
- Correlation of tumor volume and tumor uptake ([4]; 4 h after injection, tumors 150 (n = 5), 300 (n = 6), 600 (n = 4), 900 mm^3 (n = 3), visible in %ID/g but not in %ID): negative correlation between tumor volume and tumor uptake; also recorded: lower tumor uptake in large tumors (%ID/g but not %ID)
- Microdistribution in PC-3 tumors (α-imaging, H&E) ([4]; tumor sizes up to 900 mm^3, except necrotic areas): homogeneous distribution of the drug at various tumor sizes of up to 900 mm^3, except for the necrotic areas; also recorded: homogeneous microdistribution
- Radiation type contribution to total absorbed dose [5]: α-radiation comprised most of the total absorbed dose
- Estimated absorbed dose, pancreas ([5]; 0.111 GBq (3 mCi)): 0.287 grays
- Estimated absorbed dose, red marrow ([5]; 0.111 GBq (3 mCi)): 0.001 grays
- Estimated absorbed dose, urinary bladder wall ([5]; 0.111 GBq (3 mCi)): 0.021 grays
- Estimated absorbed dose, kidneys ([5]; 0.111 GBq (3 mCi)): 0.308 grays
- Estimated absorbed dose, spleen ([5]; 0.111 GBq (3 mCi)): 0.018 grays
- Estimated absorbed dose, liver ([5]; 0.111 GBq (3 mCi)): 0.109 grays
- Estimated absorbed dose, heart wall ([5]; 0.111 GBq (3 mCi)): 0.007 grays
- Estimated absorbed dose, stomach (stem cell layer) ([5]; 0.111 GBq (3 mCi)): 0.044 grays
- Estimated absorbed dose, lungs (alveolar–interstitial) ([5]; 0.111 GBq (3 mCi)): 0.022 grays
- Estimated absorbed dose, pancreas ([5]; 0.555 GBq (15 mCi)): 1.434 grays
- Estimated absorbed dose, red marrow ([5]; 0.555 GBq (15 mCi)): 0.004 grays
- Estimated absorbed dose, urinary bladder wall ([5]; 0.555 GBq (15 mCi)): 0.103 grays
- Estimated absorbed dose, kidneys ([5]; 0.555 GBq (15 mCi)): 1.540 grays
- Estimated absorbed dose, spleen ([5]; 0.555 GBq (15 mCi)): 0.091 grays
- Estimated absorbed dose, liver ([5]; 0.555 GBq (15 mCi)): 0.543 grays
- Estimated absorbed dose, heart wall ([5]; 0.555 GBq (15 mCi)): 0.036 grays
- Estimated absorbed dose, stomach (stem cell layer) ([5]; 0.555 GBq (15 mCi)): 0.219 grays
- Estimated absorbed dose, lungs (alveolar–interstitial) ([5]; 0.555 GBq (15 mCi)): 0.108 grays
- Estimated absorbed dose, pancreas ([5]; 1.110 GBq (30 mCi)): 2.867 grays
- Estimated absorbed dose, red marrow ([5]; 1.110 GBq (30 mCi)): 0.008 grays
- Estimated absorbed dose, urinary bladder wall ([5]; 1.110 GBq (30 mCi)): 0.206 grays
- Estimated absorbed dose, kidneys ([5]; 1.110 GBq (30 mCi)): 3.080 grays
- Estimated absorbed dose, spleen ([5]; 1.110 GBq (30 mCi)): 0.183 grays
- Estimated absorbed dose, liver ([5]; 1.110 GBq (30 mCi)): 1.086 grays
- Estimated absorbed dose, heart wall ([5]; 1.110 GBq (30 mCi)): 0.071 grays
- Estimated absorbed dose, stomach (stem cell layer) ([5]; 1.110 GBq (30 mCi)): 0.438 grays
- Estimated absorbed dose, lungs (alveolar–interstitial) ([5]; 1.110 GBq (30 mCi)): 0.216 grays
- Dose-limiting organ ([5]; calculated mean effective absorbed dose): kidney as the dose-limiting organ; also recorded: the kidneys were shown to be dose-limiting
- Administered activity at which 23-Gy kidney threshold is reached ([5]; RBE 3): 13.6 GBq
- Administered activity at which 23-Gy kidney threshold is reached ([5]; RBE 5): 8.3 GBq
- Organs with highest absorbed doses ([5]; male and female mice): the kidneys and pancreas revealed the highest doses for both male and female animals; also recorded: The kidneys and pancreas received the highest dose
- Estimated absorbed dose, pancreas ([5]; maximum 8.29 GBq (224.05 mCi)): 21.42 grays
- Estimated absorbed dose, red marrow ([5]; maximum 8.29 GBq (224.05 mCi)): 0.06 grays
- Estimated absorbed dose, urinary bladder wall ([5]; maximum 8.29 GBq (224.05 mCi)): 1.54 grays
- Estimated absorbed dose, kidneys ([5]; maximum 8.29 GBq (224.05 mCi)): 23.00 grays
- Estimated absorbed dose, spleen ([5]; maximum 8.29 GBq (224.05 mCi)): 1.37 grays
- Estimated absorbed dose, liver ([5]; maximum 8.29 GBq (224.05 mCi)): 8.11 grays
- Estimated absorbed dose, heart wall ([5]; maximum 8.29 GBq (224.05 mCi)): 0.53 grays
- Estimated absorbed dose, stomach (stem cell layer) ([5]; maximum 8.29 GBq (224.05 mCi)): 3.27 grays
- Estimated absorbed dose, lungs (alveolar–interstitial) ([5]; maximum 8.29 GBq (224.05 mCi)): 1.61 grays
- Effect of renal blockers on kidney retention [6]: neither agent reduced the kidney retention
- Route of excretion [7]: predominantly renal route of excretion
